Source: the supplement of paper PMC12783771
± gives the standard deviation of the averaged measurements.

B1: library; numbered along this chain (parent)
chain: MNIQIGELAKRTACPVVTIRFYEQEGLLPPPGRSRGNFRLYGEEHVERLQFIRHCRSLDMPLSDVRTLLSYRKRPDQDCGEVNMLLDEHIRQVESRIGALLELKHHLVELREACSGARPAQSCGILQGLSDCVCDTRGTTAHPSD

Key:
[1] = variants of: B1; test: sfGFP reporter fluorescence (15 h) (µM FITC); higher = higher leak; conditions: library round: Round 0; ligand: none
Method in brief: (§1)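 An Echo normalized PCR-made linear PbrR templates to 5 nM and assembled 1 μL reactions in BL21 Star (DE3) PANOx-SP extract carrying the pPbrR-sfGFP reporter plasmid and 30 μg/mL GamS. Reactions received 1 µM lead chloride, 30 µM zinc acetate or no metal and stood 15 hr at 30 °C. Fluorescence at 485/528 nm (Synergy Neo2) was converted with FITC standard curves made in 50 mM sodium borate pH 8.5. Endpoint sfGFP signal is given in µM FITC, from up to three biological replicates.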

[2] = variants of: B1; test: sfGFP reporter fluorescence (15 h) (µM FITC); higher = stronger transcriptional activation; conditions: library round: Round 0
Method in brief: as §1

| Variant | sfGFP reporter fluorescence [1] | sfGFP reporter fluorescence ([2]; ligand: 1 µM Pb) | sfGFP reporter fluorescence ([2]; ligand: 30 µM Zn) |
| --- | --- | --- | --- |
| V82H | 0.0594 ± 0.0015 | 0.05974 ± 0.00052 | 0.0586 ± 0.001 |
| V82N | 0.0597 ± 0.001 | 0.0597 ± 0.0015 | 0.05644 ± 0.00052 |
| V82R | 0.0605 ± 0.0015 | 0.05937 ± 0.00052 | 0.0568 ± 0.001 |
| V82M | 0.0594 | 0.0586 | 0.06212 ± 0.00026 |
| P143W | 0.0588 ± 0.0029 | 0.0861 ± 0.0026 | 0.751 ± 0.11 |
| Q127A | 0.0724 ± 0.0018 | 0.0793 ± 0.0049 | 0.299 ± 0.047 |
| D64K | 0.154 ± 0.049 | 0.382 ± 0.023 | 3.306 ± 0.03 |
| D64Q | 0.0579 ± 0.001 | 0.0808 ± 0.0029 | 0.781 ± 0.044 |
| F21S | 0.06341 ± 0.00052 | 0.0608 ± 0.001 | 0.06304 ± 0.00052 |
| F21G | 0.059 | 0.0577 ± 0.0023 | 0.0588 ± 0.00078 |
| F21I | 0.0597 | 0.0575 ± 0.0031 | 0.0607 ± 0.0018 |
| F38A | 0.064 ± 0.0039 | 0.0634 ± 0.0026 | 0.379 ± 0.015 |
| G128C | 0.0629 ± 0.0018 | 0.0964 ± 0.0036 | 0.16 ± 0.008 |
| G128R | 0.161 ± 0.007 | 0.316 ± 0.038 | 3.05 ± 0.31 |
| G128Y | 0.0755 | 0.203 ± 0.018 | 1.37 ± 0.067 |
| G128I | 0.066 ± 0.0021 | 0.183 ± 0.015 | 1.68 ± 0.19 |
| I125S | 0.0597 ± 0.0021 | 0.0574 ± 0.0013 | 0.0568 ± 0.0021 |
| D131E | 0.059 ± 0.0021 | 0.0825 ± 0.0042 | 0.657 ± 0.043 |
| D131K | 0.0706 ± 0.0029 | 0.127 ± 0.012 | 1.5 ± 0.34 |
| D131V | 0.0641 ± 0.001 | 0.0905 ± 0.0078 | 0.984 ± 0.15 |
| D131M | 0.0687 ± 0.0018 | 0.126 ± 0.0073 | 1.17 ± 0.17 |
| Y41F | 0.0572 ± 0.0031 | 0.1001 ± 0.00052 | 1.19 ± 0.041 |

| Variant | sfGFP reporter fluorescence [1] | sfGFP reporter fluorescence ([2]; ligand: 1 µM Pb) | sfGFP reporter fluorescence ([2]; ligand: 30 µM Zn) |
| --- | --- | --- | --- |
| Y41I | 0.0575 ± 0.0015 | 0.0572 ± 0.0021 | 0.0623 ± 0.0031 |
| L62D | 0.06066 ± 0.00026 | 0.0629 ± 0.0018 | 0.0649 ± 0.001 |
| L62S | 0.0619 ± 0.0015 | 0.063 ± 0.001 | 0.0744 ± 0.001 |
| L62K | 0.0632 ± 0.0013 | 0.0619 ± 0.001 | 0.0815 ± 0.0018 |
| E112K | 0.0706 ± 0.00078 | 0.1164 ± 0.00078 | 2.4 ± 0.25 |
| E112C | 0.0616 ± 0.001 | 0.0759 ± 0.0036 | 0.1508 ± 0.0013 |
| E112Y | 0.05919 ± 0.00026 | 0.06395 ± 0.00026 | 0.198 ± 0.028 |
| E112Q | 0.0627 ± 0.0015 | 0.0909 ± 0.0078 | 1.27 ± 0.082 |
| E112R | 0.0658 ± 0.00078 | 0.107 ± 0.0088 | 1.53 ± 0.029 |
| N83A | 0.061 ± 0.0013 | 0.0867 ± 0.0065 | 0.1411 ± 0.001 |
| N83M | 0.06102 ± 0.00026 | 0.0768 ± 0.0023 | 0.06194 ± 0.00052 |
| N83I | 0.0561 ± 0.0015 | 0.0718 ± 0.001 | 0.055 ± 0.001 |
| N83Q | 0.06487 ± 0.00052 | 0.0693 | 1.55 ± 0.4 |
| N83G | 0.0559 ± 0.00078 | 0.0748 ± 0.001 | 0.692 ± 0.13 |
| N83K | 0.0603 ± 0.0034 | 0.0663 ± 0.0015 | 0.07532 ± 0.00026 |
| N83V | 0.0577 ± 0.0034 | 0.07623 ± 0.00052 | 0.0588 ± 0.0013 |
| V93A | 0.0585 ± 0.0013 | 0.0579 ± 0.0031 | 0.128 ± 0.0062 |
| Q24A | 0.0559 ± 0.0029 | 0.05827 ± 0.00052 | 0.534 ± 0.052 |
| G36A | 0.0665 ± 0.00078 | 0.108 ± 0.0067 | 1.91 ± 0.2 |
| V46F | 0.05626 ± 0.00026 | 0.0814 ± 0.0015 | 0.66 ± 0.074 |
| V46G | 0.05498 ± 0.00052 | 0.059 ± 0.0021 | 0.106 ± 0.013 |
| V46Y | 0.0588 ± 0.00078 | 0.0861 ± 0.0067 | 0.6826 ± 0.0049 |
